± gives the uncertainty stated by the source.
Assay: amyloid nucleation score (Sup35N fusion, yeast selection) (log enrichment); library NNK2; higher = more nucleation; inactive = no reads after selection
In short: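 Random libraries were run with three technical output replicates. In each, psi-negative yeast expressing Sup35N fused to peptides of 20 random codons were induced 24 hours with 100 μM copper sulfate and grown 7 days at 30°C on medium lacking adenine and uracil, and input and output plasmid inserts were Illumina-sequenced. The nucleation score is the DiMSum log enrichment of output over input reads, centred on the mode score of non-aggregating sequences, and sequences under 100 input reads were excluded.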

Going from HIVEIGALYRAIYLKVKWRQ to HKCRWSGPAVGSQGKDVIIL, the amyloid nucleation score falls from 2.62 ± 0.21 to 1.12 ± 0.44.

HKDSKTGSIYHQWMDQREIE and HKHSISKCAKEALAALLLFV are within error of each other in amyloid nucleation score: -1.1 ± 0.48 for the first, -0.319 ± 0.76 for the second.

HKKAFVCPRCMVPCRRLWHG and HLENGINIWDKLY are within error of each other in amyloid nucleation score: 0.232 ± 0.25 for the first, -0.363 ± 1.1 for the second.

Compared with HLGRYAVKMCYWKGLFFYNN, HLMLRKGLVKCWVQTVVGSG is higher in amyloid nucleation score: 0.29 ± 0.74 for the first, 1.48 ± 0.33 for the second.

Compared with HLTSS, HLVGEKSSKRDSGGRGPRRY is lower in amyloid nucleation score: 0.772 ± 0.44 for the first, -0.32 ± 0.61 for the second.

First: HLYLPMYGIMFS
Second: HMCTFSIICKKVLMSFMGIL
The amyloid nucleation score of the first is lower: 1.27 ± 0.15 for the first, 1.93 ± 0.14 for the second.

HNYSD and HPFSSRSS are within error of each other in amyloid nucleation score: 0.187 ± 0.56 for the first, -0.018 ± 1.1 for the second.

First: HPWSFLKVGVQFVGFWDSPY
Second: HQVSGSDWPRSDYLRCLTIA
The amyloid nucleation score of the first is lower: 0.366 ± 0.19 for the first, 1.82 ± 0.19 for the second.

HRCSKPSWKVCIEWCRSRCV and HREWG are within error of each other in amyloid nucleation score: 0.614 ± 0.45 for the first, 0.668 ± 0.46 for the second.

HRFSMQALYRNIQEWSCEAW and HRGNTCTGSRCRLADRRHPS are within error of each other in amyloid nucleation score: 2.07 ± 0.12 for the first, 1.79 ± 0.18 for the second.

HRTMHRTHSICGGVDQRELL and HRVCLNTIGY are within error of each other in amyloid nucleation score: -0.538 ± 0.48 for the first, -1.02 ± 0.32 for the second.

HRVRIINCKKIWGNALWVRL and HRVWTVIMWGS are within error of each other in amyloid nucleation score: 1.15 ± 0.14 for the first, 0.699 ± 0.44 for the second.

HRYLPSG and HSAYSWFLKSSNRRSWANSS are within error of each other in amyloid nucleation score: 0.224 ± 0.8 for the first, -0.666 ± 0.79 for the second.

HSCSYRLLSMYTRLRTLVSG and HSFEFWIDTRWLVFINPYSR are within error of each other in amyloid nucleation score: -0.828 ± 0.64 for the first, -0.846 ± 0.44 for the second.

Compared with HSFLSGIKWLSSDLGDSVGY, HSFMSRVARVSWMEMVVTLA is higher in amyloid nucleation score: -1.29 ± 0.62 for the first, 1.26 ± 0.41 for the second.

Going from HSGCCRYLLNNWLYSYMQFY to HSSISVCVYSRLPCH, the amyloid nucleation score falls from 4.08 ± 0.05 to -0.447 ± 0.36.

HSVLMAGSPTILRHRYRFKG and HTGLSVGKFKVRHGNVHRVF are within error of each other in amyloid nucleation score: -0.723 ± 0.44 for the first, -0.181 ± 0.34 for the second.

HTLGIWLKREPWGMMYGLRG and HTTASATPYFAGQV are within error of each other in amyloid nucleation score: 0.165 ± 1 for the first, 0.042 ± 0.38 for the second.

Compared with HTWHLDRSLNLSMSLEPMLL, HVEWMTCWLVSNNTDPRWDR is higher in amyloid nucleation score: 0.233 ± 0.4 for the first, 0.911 ± 0.27 for the second.

Compared with HVHCEIGFVRLSTRVGRWFG, HVHKL is lower in amyloid nucleation score: 6.64 ± 0.079 for the first, -0.403 ± 0.39 for the second.

Going from HVHVNLYRTSGDIEHMSVQL to HVRYYGTHSTVNDNYIRNVR, the amyloid nucleation score falls from 8.391 ± 0.046 to 0.425 ± 0.31.

First: HVTRQLCPLMSFILGR
Second: HVYAVRSLLYGGWGRH
The amyloid nucleation score of the first is lower: 0.565 ± 0.49 for the first, 4.46 ± 0.051 for the second.

Compared with HVYVGL, HWCLLNSPNYIEMSLNDFLY is higher in amyloid nucleation score: -0.578 ± 1.1 for the first, 3.62 ± 0.053 for the second.

HWGLNTWPYSDFGVTLLRGH and HWRGFYS are within error of each other in amyloid nucleation score: -0.477 ± 0.76 for the first, -0.388 ± 1.1 for the second.

HYRGSENGVEPSFLYGVSLL and HYRYEVDYLSELCIPDGMPM are within error of each other in amyloid nucleation score: 0.079 ± 0.49 for the first, -0.197 ± 0.24 for the second.

HYSFRSIAGLQAVCGDNCMD and HYYPLVAIR are within error of each other in amyloid nucleation score: 0.427 ± 0.52 for the first, 0.389 ± 0.49 for the second.

Compared with HYYSIDEASRYKMDLNLSLL, IACLNKTFLFSCVNIYGLMT is higher in amyloid nucleation score: 2.91 ± 0.099 for the first, 5.736 ± 0.037 for the second.

Going from IALANVGLED to IANVWLLQFRKAFEGGLDAG, the amyloid nucleation score rises from -0.023 ± 0.33 to 7.08 ± 0.079.

Compared with IASISERLYCFAGPTIRCNR, ICAGSGFRKGRINPELRVHW is lower in amyloid nucleation score: 0.338 ± 0.43 for the first, -1.24 ± 0.75 for the second.

ICCWEMCLGSFFR and ICEVRIFKLNMVVCSLYYMV are within error of each other in amyloid nucleation score: 0.287 ± 0.65 for the first, -1.12 ± 0.76 for the second.

First: ICGPLTRRVIDCGAYTKY
Second: ICVYSTRTDKMSCRPF
The amyloid nucleation score of the first is lower: -0.19 ± 0.26 for the first, 0.856 ± 0.6 for the second.

First: IDDDIFVMCCIEKHVLVCEF
Second: IDFQVVWSIFLENSKKHSTR
The amyloid nucleation score of the first is higher: 3.26 ± 0.047 for the first, 0.213 ± 0.8 for the second.

IDHINF and IDNLFWPRLSGPDFVI are within error of each other in amyloid nucleation score: -0.524 ± 0.64 for the first, -1.7 ± 1.1 for the second.

IDRVVSTRSSGFVCGEAFCG and IDYLDTCFAVCFVGYTVCPT are within error of each other in amyloid nucleation score: -0.365 ± 0.63 for the first, 0.111 ± 0.5 for the second.

First: IDYQSGMPWVSMRMILKQ
Second: IEDSEREMACINPGFSFVVV
The amyloid nucleation score of the first is higher: 0.158 ± 0.46 for the first, -1.83 ± 1.1 for the second.

Compared with IEHIRFTSSSAVVRRCGNC, IEYWRSGVMELGHVVSYRDI is lower in amyloid nucleation score: 6.11 ± 0.066 for the first, 0.102 ± 0.77 for the second.

Going from IFCNTLCQIGFRRNVKASGN to IFFLMNPR, the amyloid nucleation score rises from -0.104 ± 0.5 to 2.16 ± 0.068.

First: IFGFGMFKWKTFLTLSVFV
Second: IFGSWSSIMCLTKFKCSLGG
The amyloid nucleation score of the first is lower: -0.223 ± 0.76 for the first, 2.8 ± 0.081 for the second.

Compared with IFHRLKDLT, IFHYAFC is higher in amyloid nucleation score: -1.24 ± 0.48 for the first, 10.09 ± 0.061 for the second.

Going from IFLIK to IFMNPICFWSNRNFLVWSNN, the amyloid nucleation score rises from -0.249 ± 1.1 to 4.5 ± 0.059.

Going from IFMRNRV to IFNCLFDNGKDVYFGILIDF, the amyloid nucleation score rises from -0.524 ± 0.64 to 2.85 ± 0.081.

First: IFPLPDLGAYSC
Second: IFSKVRLFFRRGMNFVMGEV
The amyloid nucleation score of the first is higher: 0.47 ± 0.65 for the first, -1.64 ± 0.77 for the second.

IFSRIDTQCGMMSISQQ and IFSTHVEFRWQLILGL are within error of each other in amyloid nucleation score: -0.364 ± 0.24 for the first, -0.426 ± 0.25 for the second.

IFVFSWRIRMWLLKSLTCG and IFYNIVE are within error of each other in amyloid nucleation score: -0.904 ± 0.78 for the first, -1.31 ± 0.78 for the second.

Compared with IFYRYFSVFNCPAICRQYRK, IFYWLIHHRLMYDFFCRVLT is lower in amyloid nucleation score: 6.382 ± 0.054 for the first, -0.995 ± 0.76 for the second.

First: IFYYIDCCHITARYFQREGM
Second: IGAQPRDGYN
The amyloid nucleation score of the first is higher: 7.71 ± 0.081 for the first, -0.223 ± 0.49 for the second.

Going from IGGGTLYWGVDWVMY to IGHLPMMVLT, the amyloid nucleation score falls from 2.96 ± 0.12 to 1.42 ± 0.36.

IGLKVSSFNDKVLSGA and IGLTALDFMSAFGVHLYGCG are within error of each other in amyloid nucleation score: -0.285 ± 0.63 for the first, 0.215 ± 0.76 for the second.

Compared with IGLVVFSAL, IGRMGIQKWS is lower in amyloid nucleation score: 2.56 ± 0.11 for the first, 0.698 ± 0.47 for the second.

First: IGRRLVDFWDVGPFCSHVII
Second: IGTYWYVKLWRYSYVYPYLD
The amyloid nucleation score of the first is lower: -1.48 ± 1.1 for the first, 0.665 ± 0.57 for the second.

First: IGVIKGFYWHK
Second: IGVWMGCYTSLHCSIKCLEI
The amyloid nucleation score of the first is lower: -0.343 ± 1.1 for the first, 6.36 ± 0.086 for the second.

IGWTFIHVPCSAQRFVAIVS and IHESSSF are within error of each other in amyloid nucleation score: 0.827 ± 0.51 for the first, -0.47 ± 1.1 for the second.

Going from IHFWIMIDHG to IHGFNLSIRKMQKDGSDGQH, the amyloid nucleation score rises from -0.771 ± 0.35 to 0.635 ± 0.65.

IHRILCHGVRASMLGGSVAL and IHVICCAGRVARCFVSEIMG are within error of each other in amyloid nucleation score: 0.067 ± 0.79 for the first, 0.674 ± 0.48 for the second.

First: IIADCTVARARHCLE
Second: IIGFLFMDFLLSCRFQFCT
The amyloid nucleation score of the first is higher: 0.276 ± 1 for the first, -1.32 ± 0.45 for the second.

Compared with IIKLGESNPKSPFGTLYYGF, IILAKLSLLTICCSIDWISR is higher in amyloid nucleation score: -0.213 ± 1.1 for the first, 3.07 ± 0.11 for the second.

IIRYTSILWKINGSGVNFWF and IISSYSATEARTMFIKLHCL are within error of each other in amyloid nucleation score: -0.67 ± 0.55 for the first, -0.606 ± 0.54 for the second.

In the case of HNIIWFSLTWLRYMSVVVIC, the amyloid nucleation score is reported as “inactive”.
In the case of HPSFLRIWDYIRSKFNSVHR, the amyloid nucleation score is reported as “inactive”.
With HSCRTYI the amyloid nucleation score was “inactive”.
With HYRWMSHADIMVFHNLCRYN the amyloid nucleation score was “inactive”.
In the case of IEGFRNDFLYVKISVGGAVV, the amyloid nucleation score is reported as “inactive”.
For IFLEMKDHIIRATFNRLRFC, the amyloid nucleation score was “inactive”.
With IFSIKPIYLDLNQRVNSIAE the amyloid nucleation score was “inactive”.
With IFSQGHEYKRDELKNV the amyloid nucleation score was “inactive”.
With IFYIVGYFAHLMMWNTRRDG the amyloid nucleation score was “inactive”.
For IILRCNKDFEALACIVVSRR, the amyloid nucleation score was “inactive”.
With IIRITESASRCNTDQLFLLW the amyloid nucleation score was “inactive”.
With IISFLLFGEGGFFLVLY the amyloid nucleation score was “inactive”.

Source: the supplement of paper PMC12042874
